# Literature values, collected in patent US20210330752A1, “FEED SUPPLEMENTS” (OmniGen Research, LLC, priority 2018, published 2021).
# Tested on: binding protein
substance,measurement,value
Insulin-like growth factor-1 [IGF-1],IGF-1 in plasma bound to a binding protein,more than 99%
